4 molecules from patent US6730828B1, “Isolated nucleic acids encoding a wheat glutathione transferase, plants transformed therewith and methods of use thereof” (Aventis Agriculture Limited, priority 1997, dated 2004) can be followed below.

Series [1] can be described thus: Glutathione peroxidase activity toward cumene hydroperoxide. Format: biochemical. The settings on record: recombinant wheat GST, affinity purified; ± standard error (n = 3). As for the experimental part: (§1) To assay the recombinant fusion proteins for GST activity, the E. coli were grown in the presence of IPTG and then pelleted by centrifugation. The bacteria were then lysed by sonication and the protein precipitated using 80% ammonium sulphate. After resuspension and desalting, GSTs were purified by affinity chromatography. The WIC 3 fusion protein was purified using sulphobromophthalein-S-glutathione affinity chromatography (Mozer et al. Biochem. 22, 1983, 1068-1072) while the other WIC fusion proteins were purified using glutathione-agarose (Mannervik and Guthenberg. Methods Enzymol. 77 1981, 231-235).The purified enzymes were then assayed for GST activities toward herbicides (Table 3) and GST activities toward non-herbicide substrates and glutathione peroxidase activities toward organic hydroperoxides (Table 4).
(§2) A polyclonal antiserum was raised in a rabbit to a mixture of TaGST1-2 and TaGST1-3. When tested against crude extracts from safener-treated wheat shoots the antiserum recognised both the 25 kDa TaGST1 subunit and the 26 kDa safener-inducible TaGST2 and TaGST3 subunits. The antiserum was then used in conjunction with the antiserum raised to TaGST1-1 to immuno screen the cDNA library prepared from fenchlorazole ethyl treated wheat shoots as described in example 1. Duplicate lifts were taken from the plated out library and the first blot screened with the antiserum raised against TaGST1-2 and TaGST1-3. The second blot was screened with the antiserum raised to TaGST1-1. Five plaques were identified from the first blot which were absent from the second blot corresponding to cDNAs encoding TaGST2 or TaGST3 like polypeptides and theses clones were purified and the respective plasmids sequenced. […] The other three clones ICC. ICP and ICV had identical DNA sequences (SEQ ID No. 17) and predicted amino acid sequence (SEQ ID No. 18). GST ICJ was sub-cloned into the pET 11a vector after using PCR to introduce a Nde 1 restriction site into the translation start site, using the primer 5′ AGGTAGTTACATATGGCCGGAGGA 3′ (SEQ ID No. 19) in the amplification. following sub-cloning, the sequence of GST ICJ was re-checked to ensure no PCR induced errors had been introduced. The recombinant GST ICJ was then expressed in E. coli and purified by S-hexylglutathione affinity chromatography. The purified GST ICJ was assayed for activities as a GST (Table 3) and as a glutathione peroxidase (Table 4). […] GST ICV was finally expressed as the respective beta-galactosidase fusion protein using the Bluescript plasmid and assayed for GST activity (Table 3 ) and glutathione peroxidase activity (Table 4) in crude bacterial lysates. The specific activity of GST ICV toward these substrates was then calculated by I) subtracting the low levels of GST and GPOX activity present due the endogenous activities in the E. coli and ii) determining the proportion of protein in the lysate present as recombinant GST ICV from SDS-PAGE analysis, by densitometry analysis of polypeptides stained with Coomassie blue.

A short description of series [2]: GST activity toward herbicide metolachlor (HPLC-based assay). It counts as biochemical. As for the experimental part: (§3) The purified isoenzymes were assayed for GST activity toward herbicides using the HPLC-based assays described by Edwards R. and Cole D. J. (Pesticide Biochemistry and Physiology Vol. 54, pp96-104 (1996)) and the results are presented in Table 2. […] These isoenzymes had additional activities as glutathione peroxidases able to reduce linoleic acid hydroperoxide, a major reaction product formed during membrane peroxidation in plants (Williamson and Beverly. J. Cereal Sci. 8, 1988, 155-163).
as §1, §2

Series [3] can be described thus: GST activity toward benzyl isothiocyanate. Format: biochemical. The following applies: recombinant wheat GST, affinity purified; ± standard error. As for the experimental part: as §1
The next series in a line: GST activity toward CDNB. It counts as biochemical. As for the experimental part: as §3
To confirm that TaGST1 encoded a GST, it was expressed as a fusion protein with beta-galactosidase using the pBluescript plasmid in E. coli strain SOLR. TaGST1 clones were inoculated into LB liquid medium and were grown overnight at 37/C on all orbital shaker in the presence of IPTG. Bacteria were then pelleted by centrifugation, lysed by sonication and assayed for GST activity toward CDNB and analysed by SDS-PAGE and Western blotting using the anti-TaGSTI-I serum. With all six TaGST1 clones, GST activity toward CDNB could be determined in the crude extracts in the range 30-50 nkat/mg crude lysate.
as §1
as §2, with “The specific activity of GST ICV toward these substrates was then calculated by I) subtracting the low levels of GST and GPOX activity present due the endogenous activities in the E. coli and ii) determining the proportion of protein in the lysate present as recombinant GST ICV from SDS-PAGE analysis, by densitometry analysis of polypeptides stained with Coomassie blue.” left out

Series [4] in a line: GST activity toward herbicide fluorodifen (HPLC-based assay). It counts as biochemical. As for the experimental part:
as §3, §1, §2

Series [5] is described as follows: GST activity toward crotonaldehyde. Format: biochemical. The settings on record: recombinant wheat GST, affinity purified; ± standard error. As for the experimental part:
as §1

Series [6] in a line: GST activity toward herbicide fenoxaprop-ethyl (HPLC-based assay). Format: biochemical. As for the experimental part:
as §3, §1, §2

Another series has as its system wheat shoots. The experiment in a line: Enhancement of GST isoenzyme expression in wheat shoots by safener fenchlorazole-ethyl. It counts as in vivo, Triticum aestivum L. var. Hunter. The settings on record: for % enhancement by safener: fenchlorazole-ethyl treated (safened) versus unsafened wheat shoots; for Effect of safener fenchlorazole-ethyl on expression: wheat shoots, in words. As for the experimental part:
Wheat seeds (Triticum aestivum L. var. Hunter) were imbibed in a 10 mg/l solution of the herbicide safener fenchlorazole-ethyl and then grown in an environmental growth room with further root-applied watering treatments of 5 mg/l fenchlorazole ethyl applied as required. At 10 days after imbibing, the shoot tissue was harvested and extracted prior to precipitation of the protein with ammonium sulphate (80% saturation). The total protein extract was then applied in the presence of 1 M ammonium sulphate to a phenyl-Sepharose column. The bound GSTs were then recovered, firstly by reducing the ammonium sulphate concentration to 0 M to yield the polar GST fraction, which represented 61% of the recovered activity toward 1-chloro-2,4-dinitrobenzene (CDNB). The remaining 39% of the GST activity was then recovered by adding ethylene glycol (50% v/v) to the running buffer to yield the hydrophobic GST fraction. […] The component polypeptides in the active fractions were then analysed by silver staining after resolution by sodium dodecyl sulphate polyacrylamide gel electrophoresis (SDS-PAGE). It was concluded that in fenchlorazole-ethyl-treated wheat the polar GSTs were composed of 25 kDa and 26 kDa polypeptides, while the hydrophobic fraction contained 25 kDa, 26 kDa and 24 kDa polypeptides. Further analysis by reversed-phase HPLC confirmed the subunit compositions (FIG. 2). Based on the combined analyses by Q-sepharose, HPLC and SDS-PAGE these GST polypeptides were named as described in Table 1, which also contains details of how these subunits associate together to form the active dimers found in plants and the relative abundance of these subunits in extracts from unsafened and fenchlorazole-ethyl treated ([…]) plants.

Where [7] appears, read: recombinant wheat GST expressed in E. coli, affinity purified, ± standard error.
The mark [8] stands for this setting: recombinant wheat GST expressed in E. coli, affinity purified.
[9] abbreviates: isoenzymes purified from fenchlorazole-ethyl-treated wheat shoots.

B1: WIC 1: recombinant type I wheat GST, SEQ ID No. 3, amino acid SEQ ID No. 4 (protein)
chain: MAAPAVKVYGWAMSPFVARALLCLEEAGVEYELVPMSREAGDHRQPDFLARNPFGQVPVLEDGDLTIFESRAVARHVLRKHKPELLGSGSPESAAMVDVWLEVEAHQHQTPAGTIVMQCILTPFLGCQRDQAAIDENAAKLTNLFDVYEARLSASRYLAGEAVSLADLSHFPFMRYFMDTEYASLVEERPHVKAWWEEFKASPAAKRVTEFMPPNFGFGKKAEK
modifications: Triticum aestivum L.
For the molecule B1, the “Glutathione peroxidase activity toward cumene hydroperoxide” value in series [1] is given as 18.6 ± 0.5 absorbance change at 340 nm.mg^−1. Besides, the “GST activity toward metolachlor” value in series [2] (setting [7]) stood at 0.315 ± 0.003 nkat.mg^−1. The “GST activity toward benzyl isothiocyanate” value in series [3] is 18.0 ± 3.75 nkat.mg^−1. The “GST activity toward CDNB” value in “GST activity toward CDNB” (setting [8]) stood at 406.5 nkat.mg^−1. The “GST activity toward fluorodifen” value in series [4] (setting [7]) stood at 0.136 ± 0.011 nkat.mg^−1. The “GST activity toward crotonaldehyde” value in series [5] is 7.1 ± 0.7 nkat.mg^−1. Further, the “GST activity toward fenoxaprop-ethyl” value in series [6] (setting [7]) stood at 0.050 ± 0.010 nkat.mg^−1.

B2: TaGST1-2: wheat GST isoenzyme, heterodimer of TaGST1 and 26 kDa TaGST2 subunits (SEQ ID No. 2/SEQ ID No. 16) (protein)
chain 1: MAGEKGLVLLDFWVSPFGQRVRIALAEKGLPYEYAEEDLMAGKSDRLLRANPVHKKIPVLLHDGRAVNESLIILQYLEEAFPDAPALLPSDPYARAQARFWADYVDKKVYDCGSRLWKLKGEPQAQARAEMLDILKTLDGALGDKPFFGGDKFGFVDAAFAPFTAWFHSYERYGEFSLPEVAPKIAAWAKRCGERESVAKSLYSPDKVYDFIGLLKKKYGIE
chain 2: MAGDGELKLLGVWTSPFVIRVRVVLNLKSLPYEYVEESLGSKSALLLGSNPVHQSVPVLLHGGRPVNESQVIVQYIDEVWAGAGPSVLPADPYERATARFWAAYVDDKVGSAWTGMLFSCKTEEERAEAVSRAVAALETLEGAFAECSKGKAFFGGDAIGFVDVVLGGYLGWFGAIDKIIGRRLIDPARTPLLARWEERFRAADAAKGVVPDDADKMLEFLPTVLAWIAGKAK
modifications: heterodimer; Triticum aestivum L.
B2: the “GST activity toward metolachlor” value in series [2] (setting [9]) worked out at 0.25 nkat.mg^−1. Moreover, in the series with wheat shoots, the “% enhancement by safener” value is “Only” and the “Effect of safener fenchlorazole-ethyl on expression” value is reported as “only observed following treatment with the safener”. For the same molecule, the “GST activity toward CDNB” value in “GST activity toward CDNB” (setting [9]) is listed as 1,441 nkat.mg^−1. Also, in series [4] (setting [9]), the “GST activity toward fluorodifen” value was found to be 0.38 nkat.mg^−1. Moreover, in series [6] (setting [9]), the “GST activity toward fenoxaprop-ethyl” value worked out at 0.61 nkat.mg^−1.

B3: TaGST1: recombinant wheat GST from TaGST1 cDNA (SEQ ID No. 1, amino acid SEQ ID No. 2) expressed in E. coli (protein)
chain: MAGEKGLVLLDFWVSPFGQRVRIALAEKGLPYEYAEEDLMAGKSDRLLRANPVHKKIPVLLHDGRAVNESLIILQYLEEAFPDAPALLPSDPYARAQARFWADYVDKKVYDCGSRLWKLKGEPQAQARAEMLDILKTLDGALGDKPFFGGDKFGFVDAAFAPFTAWFHSYERYGEFSLPEVAPKIAAWAKRCGERESVAKSLYSPDKVYDFIGLLKKKYGIE
modifications: Triticum aestivum L.
Regarding B3, in series [1], the “Glutathione peroxidase activity toward cumene hydroperoxide” value is 0.7 ± 0.1 absorbance change at 340 nm.mg^−1. For the same molecule, the “GST activity toward metolachlor” value in series [2] (setting [7]) was determined as 0.127 ± 0.014 nkat.mg^−1. Besides, the “GST activity toward benzyl isothiocyanate” value in series [3] stood at 11.8 ± 0 nkat.mg^−1. The “GST activity toward CDNB” value in the series “GST activity toward CDNB” (setting [8]) amounted to 1970 nkat.mg^−1. Moreover, in series [4] (setting [7]), the “GST activity toward fluorodifen” value is 2.0 ± 0.1 nkat.mg^−1. Besides, the “GST activity toward crotonaldehyde” value in series [5] is given as 3.7 ± 0.3 nkat.mg^−1. The “GST activity toward fenoxaprop-ethyl” value in series [6] (setting [7]) is recorded as 0 nkat.mg^−1.

B4: TaGST1-3: wheat GST isoenzyme, heterodimer of TaGST1 and 26 kDa TaGST3 subunits (SEQ ID No. 2/SEQ ID No. 18) (protein)
chain 1: MAGEKGLVLLDFWVSPFGQRVRIALAEKGLPYEYAEEDLMAGKSDRLLRANPVHKKIPVLLHDGRAVNESLIILQYLEEAFPDAPALLPSDPYARAQARFWADYVDKKVYDCGSRLWKLKGEPQAQARAEMLDILKTLDGALGDKPFFGGDKFGFVDAAFAPFTAWFHSYERYGEFSLPEVAPKIAAWAKRCGERESVAKSLYSPDKVYDFIGLLKKKYGIE
chain 2: MAGGEELKLLGWWAPGVSPYVLRAQMALAVKGLSYDYLPEDRWSTSDLLIASNPVYKKVPVLIHNGRPVCESLLILEYLDDAVGLAGNGKPILPADPYSRAVARFWAAYVNDKLFPSCTGILKTTKQEERAGKMEETLSGLRHLEAVMAECSEGEAEAPFFGGDAIGFLDIALGCYLPWFEAAGRLAGLGPIIDPARTPKLAAWAERFSVAEPIKALLPGVDKLEEYITTALYPKWNIAVTGN
modifications: heterodimer; Triticum aestivum L.
Regarding B4, in series [2] (setting [9]), the “GST activity toward metolachlor” value is 0.28 nkat.mg^−1. Moreover, in the series on wheat shoots, the “% enhancement by safener” value was “Only” and the “Effect of safener fenchlorazole-ethyl on expression” value is reported as “only observed following treatment with the safener”. Further, the “GST activity toward CDNB” value in the series “GST activity toward CDNB” (setting [9]) is 1,700 nkat.mg^−1. The “GST activity toward fluorodifen” value in series [4] (setting [9]) is given as 0.38 nkat.mg^−1. Moreover, the “GST activity toward fenoxaprop-ethyl” value in series [6] (setting [9]) was 0.44 nkat.mg^−1.
